Test results as given in patent publication US20220177587A1, “METHODS AND USES OF VARIANT CD80 FUSION PROTEINS AND RELATED CONSTRUCTS” (Alpine Immune Sciences, Inc., priority 2018, published 2022).
Numbering of substitutions follows the chain as printed. Names and notes keep the numbering of the source.

B1: variant CD80 IgV-Fc M47L (Fc fusion)
chain: VIHVTKEVKEVATLSCGHNVSVEELAQTRIYWQKEKKMVLTMMSGDLNIWPEYKNRTIFDITNNLSIVILALRPSDEGTYECVVLKYEKDAFKREHLAEVTLSVKAD
B2: variant CD80 IgV-Fc (inert) H18F/A26D/E35D/D46E/M47T/V68M/A71G/D90G (Fc fusion)
chain: B1 chain with H18F, A26D, E35D, D46E, L47T, V68M, A71G, D90G
B3: variant CD80 IgV-Fc (inert) H18Y/A26P/E35D/M47Y/V68I/A71G/D90G (Fc fusion)
chain: B1 chain with H18Y, A26P, E35D, L47Y, V68I, A71G, D90G
B4: variant CD80 IgV-Fc (inert) H18F/A26P/E35D/M47I/V68M/A71G/D90G (Fc fusion)
chain: B1 chain with H18F, A26P, E35D, L47I, V68M, A71G, D90G
B5: variant CD80 IgV-Fc (inert) H18C/A26P/E35D/M47L/V68M/A71G (Fc fusion)
chain: B1 chain with H18C, A26P, E35D, V68M, A71G
B6: variant CD80 IgV-Fc (inert) H18T/A26N/E35D/M47L/V68M/A71G (Fc fusion)
chain: B1 chain with H18T, A26N, E35D, V68M, A71G
B7: variant CD80 IgV-Fc (inert) H18Y/E35D/M47V/V68M/A71G (Fc fusion)
chain: B1 chain with H18Y, E35D, L47V, V68M, A71G
B8: variant CD80 IgV-Fc (inert) H18V/E35D/M47V/V68M/A71G/D90G (Fc fusion)
chain: B1 chain with H18V, E35D, L47V, V68M, A71G, D90G
B9: variant CD80 IgV-Fc (inert) H18V/A26K/E35D/M47L/V68M/A71G (Fc fusion)
chain: B1 chain with H18V, A26K, E35D, V68M, A71G
B10: variant CD80 IgV-Fc (inert) H18Y/E35D/M47V/V68L/A71G/D90G (Fc fusion)
chain: B1 chain with H18Y, E35D, L47V, V68L, A71G, D90G
B11: variant CD80 IgV-Fc (inert) H18F/A26N/E35D/M47V/V68M/A71G/D90K (Fc fusion)
chain: B1 chain with H18F, A26N, E35D, L47V, V68M, A71G, D90K
B12: variant CD80 IgV-Fc (inert) H18V/A26D/E35D/M47V/V68M/A71G/D90G (Fc fusion)
chain: B1 chain with H18V, A26D, E35D, L47V, V68M, A71G, D90G
B13: variant CD80 IgV-Fc (inert) H18V/A26Q/E35D/M47V/V68L/A71G/D90G (Fc fusion)
chain: B1 chain with H18V, A26Q, E35D, L47V, V68L, A71G, D90G
B14: variant CD80 IgV-Fc (inert) H18I/A26P/E35D/M47V/V68M/A71G (Fc fusion)
chain: B1 chain with H18I, A26P, E35D, L47V, V68M, A71G
B15: variant CD80 IgV-Fc (inert) H18Y/A26P/E35D/M47I/V68M/A71G (Fc fusion)
chain: B1 chain with H18Y, A26P, E35D, L47I, V68M, A71G
B16: CD80 E24G/R29D/Y31L/Q33H/K36G/M38I/T41A/M43R/M47T/F59L/E81V/L85R/K89N/A91T/F92P/K93V/R94L/H96R/N149S/C182S ECD-Fc (Fc fusion)
chain: VIHVTKEVKEVATLSCGHNVSVEGLAQTDILWHKEGKIVLAMRSGDTNIWPEYKNRTILDITNNLSIVILALRPSDEGTYVCVVRKYENDTPVLERLAEVTLSVKADFPTPSISDFEIPTSNIRRIICSTSGGFPEPHLSWLENGEELSAINTTVSQDPETELYAVSSKLDFNMTTNHSFMSLIKYGHLRVNQTFNWNTTKQEHFPDN
B17: CD80 L70Q/A91G/T110A/I118V/T120S/T130A ECD-Fc (Fc fusion)
chain: VIHVTKEVKEVATLSCGHNVSVEELAQTRIYWQKEKKMVLTMMSGDMNIWPEYKNRTIFDITNNLSIVIQALRPSDEGTYECVVLKYEKDGFKREHLAEVTLSVKADFPAPSISDFEVPSSNIRRIICSASGGFPEPHLSWLENGEELNAINTTVSQDPETELYAVSSKLDFNMTTNHSFMCLIKYGHLRVNQTFNWNTTKQEHFPDN
B18: CD80 K36G/K37Q/M38I/L40M ECD-Fc (Fc fusion)
chain: B17 chain with K36G, K37Q, M38I, L40M, Q70L, G91A, A110T, V118I, S120T, A130T
B19: CD80 V22A/L70Q/S121P ECD-Fc (Fc fusion)
chain: B17 chain with V22A, G91A, A110T, V118I, S120T, S121P, A130T
B20: CD80 A91G/F92L/F108L/I118V/T120S ECD-Fc (Fc fusion)
chain: B17 chain with Q70L, F92L, F108L, A110T, A130T
B21: CD80 I67F/L70R/E88G/A91G/I118V/T120S/T130A ECD-Fc (Fc fusion)
chain: B17 chain with I67F, Q70R, E88G, A110T
B22: CD80 R29V/M43Q/E81R/L85I/K89R/D90L/A91E/F92N/K93Q/R94G ECD-Fc (Fc fusion)
chain: VIHVTKEVKEVATLSCGHNVSVEELAQTVIYWQKEKKMVLTMQSGDMNIWPEYKNRTIFDITNNLSIVILALRPSDEGTYRCVVIKYERLENQGEHLAEVTLSVKADFPTPSISDFEIPTSNIRRIICSTSGGFPEPHLSWLENGEELNAINTTVSQDPETELYAVSSKLDFNMTTNHSFMCLIKYGHLRVNQTFNWNTTKQEHFPDN
B23: CD80 A12V/S15F/Y31H/M38L/T41G/M43L/D90N/T130A/P137L/N149D/N152T ECD-Fc (Fc fusion)
chain: VIHVTKEVKEVVTLFCGHNVSVEELAQTRIHWQKEKKLVLGMLSGDMNIWPEYKNRTIFDITNNLSIVILALRPSDEGTYECVVLKYEKNAFKREHLAEVTLSVKADFPTPSISDFEIPTSNIRRIICSASGGFPELHLSWLENGEELDAITTTVSQDPETELYAVSSKLDFNMTTNHSFMCLIKYGHLRVNQTFNWNTTKQEHFPDN

biological target: CD28 (human) (UniProt P10747); experiment: flow cytometry, Jurkat cells (CD28); vs WT CD80 ECD-Fc (Abcam)

Fold change to WT CD80 [fold] | Binder
0.4 | B1

biological target: human PD-L1 (human) (UniProt Q9NZQ7); experiment: flow cytometry; PD-L1 MFI over CD28 MFI of the same protein
Sequence (Q9NZQ7 19-290): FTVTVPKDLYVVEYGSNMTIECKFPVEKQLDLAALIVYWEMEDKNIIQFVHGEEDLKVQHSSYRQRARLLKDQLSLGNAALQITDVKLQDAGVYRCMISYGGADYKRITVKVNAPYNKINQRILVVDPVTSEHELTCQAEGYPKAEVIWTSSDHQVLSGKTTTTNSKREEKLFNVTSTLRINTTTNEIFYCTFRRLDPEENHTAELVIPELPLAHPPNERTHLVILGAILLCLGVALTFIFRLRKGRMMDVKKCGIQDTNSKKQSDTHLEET

Ratio of PDL1:CD28 | Binder
6.1 | B1

biological target: human CTLA-4 (human) (UniProt P16410); experiment: flow cytometry, CHO/huCTLA-4 cells; vs WT CD80 ECD-Fc (Abcam)
Sequence (P16410 36-223): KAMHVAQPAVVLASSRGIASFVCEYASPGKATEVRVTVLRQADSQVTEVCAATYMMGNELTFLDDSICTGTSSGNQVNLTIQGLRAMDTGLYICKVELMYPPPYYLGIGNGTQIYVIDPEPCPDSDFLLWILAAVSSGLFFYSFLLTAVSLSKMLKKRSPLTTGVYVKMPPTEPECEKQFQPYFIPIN

Fold change to WT CD80 [fold] | Binder
0.8 | B1

biological target: human PD-L1 (human) (UniProt Q9NZQ7); experiment: flow cytometry, CHO cells stably expressing PD-L1

MFI at 33.3 nM [MFI] | Binder
27500 | B2
27300 | B3
32300 | B4
67000 | B5
68500 | B6
64900 | B7
43600 | B8
67300 | B9
47900 | B10
22400 | B11
67500 | B12
33600 | B13
64900 | B14
54500 | B15

biological target: CD28 (human) (UniProt P10747); experiment: flow cytometry, Jurkat/IL2 reporter cells (CD28)

MFI at 33.3 nM [MFI] | Binder
309 | B1

biological target: CD28 (human) (UniProt P10747); experiment: flow cytometry, Jurkat cells (CD28); MFI over CD80 WT IgV-Fc

Fold change to WT CD80 [fold] | Binder
59.1 | B2
17.8 | B3
47.1 | B4
18.7 | B5
13.4 | B6
31.6 | B7
20.7 | B8
35.7 | B9
25 | B10
31.1 | B11
61.3 | B12
30.6 | B13
25.2 | B14
50.2 | B15

biological target: CD28 (human) (UniProt P10747); experiment: flow cytometry, Expi293F cells transfected with CD28

MFI [MFI] | parental ratio | Binder
1070 | 0.08 | B16
8 | 0.09 | B17
1170 | 0.09 | B18
5 | 0.06 | B19
50 | 0.53 | B20
5 | 0.05 | B21
1030 | 0.08 | B22
6 | 0.06 | B23

biological target: human CTLA-4 (human) (UniProt P16410); experiment: flow cytometry, Expi293F cells transfected with CTLA-4

MFI [MFI] | parental ratio | Binder
1020 | 0.02 | B16
14 | 0.07 | B17
1400 | 0.03 | B18
7 | 0.04 | B19
128 | 0.61 | B20
6 | 0.03 | B21
996 | 0.02 | B22
6 | 0.03 | B23

biological target: human PD-L1 (human) (UniProt Q9NZQ7); experiment: flow cytometry, CHO/PD-L1 cells; MFI over CD80 WT IgV-Fc

Fold change to WT CD80 [fold] | Binder
167 | B2
165 | B3
196 | B4
406 | B5
415 | B6
393 | B7
264 | B8
408 | B9
290 | B10
136 | B11
409 | B12
204 | B13
393 | B14
330 | B15

biological target: human PD-L1 (human) (UniProt Q9NZQ7); experiment: flow cytometry, CHO/huPD-L1 cells; vs WT CD80 ECD-Fc (Abcam)

Fold change to WT CD80 [fold] | Binder
14.8 | B1

biological target: human PD-L1 (human) (UniProt Q9NZQ7); experiment: flow cytometry, CHO cells expressing huPD-L1

MFI at 33.3 nM [MFI] | Binder
1900 | B1

biological target: human CTLA-4 (human) (UniProt P16410); experiment: flow cytometry, CHO/CTLA4 cells; MFI over CD80 WT IgV-Fc

Fold change to WT CD80 [fold] | Binder
12.4 | B2
6 | B3
17.3 | B4
16.9 | B5
15.1 | B6
17.1 | B7
12.1 | B8
16.6 | B9
11.9 | B10
11 | B11
16 | B12
12.8 | B13
15.8 | B14
8.8 | B15

biological target: CD28 (human) (UniProt P10747); experiment: flow cytometry, Jurkat cells (CD28)

MFI at 33.3 nM [MFI] | Binder
6030 | B2
1820 | B3
4800 | B4
1910 | B5
1370 | B6
3230 | B7
2120 | B8
3640 | B9
2550 | B10
3170 | B11
6250 | B12
3130 | B13
2570 | B14
5120 | B15

biological target: human PD-L1 (human) (UniProt Q9NZQ7); experiment: flow cytometry, Expi293F cells transfected with PD-L1

MFI [MFI] | parental ratio | Binder
1120 | 0.06 | B16
5 | 0.07 | B17
959 | 0.05 | B18
5 | 0.07 | B19
16 | 0.11 | B20
6 | 0.08 | B21
1580 | 0.09 | B22
5 | 0.08 | B23

biological target: human CTLA-4 (human) (UniProt P16410); experiment: flow cytometry, CHO cells expressing huCTLA-4

MFI at 33.3 nM [MFI] | Binder
30800 | B1

biological target: human CTLA-4 (human) (UniProt P16410); experiment: flow cytometry, CHO cells stably expressing CTLA4

MFI at 33.3 nM [MFI] | Binder
17200 | B2
8280 | B3
23900 | B4
23400 | B5
20900 | B6
23600 | B7
16800 | B8
22900 | B9
16500 | B10
15200 | B11
22100 | B12
17700 | B13
21900 | B14
12200 | B15
